Test results as given in paper PMC8409790 (mAbs, 2021).

B1: Human single-chain (sc) IL-23 (IL-12p40(23-328)-(GGGGS)x4-IL-23p19(21-189)-TEV-FLAG-8His) (ligand)
chain: IWELKKDVYVVELDWYPDAPGEMVVLTCDTPEEDGITWTLDQSSEVLGSGKTLTIQVKEFGDAGQYTCHKGGEVLSHSLLLLHKKEDGIWSTDILKDQKEPKNKTFLRCEAKNYSGRFTCWWLTTISTDLTFSVKSSRGSSDPQGVTCGAATLSAERVRGDNKEYEYSVECQEDSACPAAEESLPIEVMVDAVHKLKYENYTSSFFIRDIIKPDPPKNLQLKPLKNSRQVEVSWEYPDTWSTPHSYFSLTFCVQVQGKSKREKKDRVFTDKTSATVICRKNASISVRAQDRYYSSSWSEWASVPCSGGGGSGGGGSGGGGSGGGGSAVPGGSSPAWTQCQQLSQKLCTLAWSAHPLVGHMDLREEGDEETTNDVPHIQCGDGCDPQGLRDNSQFCLQRIHQGLIFYEKLLGSDIFTGEPSLLPDSPVGQLHASLLGLSQLLQPEGHHWETQQIPSLSPSQPWQRLLLRFKILRSLQAFVAVAARVFAHGAATLSP
B2: Human IL-23Rα protein (receptor)
chain: GITNINCSGHIWVEPATIFKMGMNISIYCQAAIKNCQPRKLHFYKNGIKERFQITRINKTTARLWYKNFLEPHASMYCTAECPKHFQETLICGKDISSGYPPDIPDEVTCVIYEYSGNMTCTWNAGKLTYIDTKYVVHVKSLETEEEQQYLTSSYINISTDSLQGGKKYLVWVQAANALGMEESKQLQIHLDDIVIPSAAVISRAETINATVPKTIIYWDSQTTIEKVSCEMRYKATTNQTWNVKEFDTNFTYVQQSEFYLEPNIKYVFQVRCQETGKRYWQPWSSLFFHKTPETVPQVTSKAFQHDTWNSGLTVASISTGHLTSDNRGDIG

Assays:
Test in all cases: SPR
[1] = target: Human IL-12Rβ1-Fc (human, UniProt P42701)
[2] = target: B2
[3] = target: B1

| Kd [1] [nM] | Kd [2] [nM] | KD with a saturating amount of tildrakizumab bound to IL-23 [3] [nM] | Binder |
| --- | --- | --- | --- |
| 19 | 0.8 | – | B1 |
| – | – | 190 | B2 |
